Data as given in ChEMBL document CHEMBL2074321, “A continuous fluorescence assay for the study of P-glycoprotein-mediated drug efflux using inside-out membrane vesicles” (Anal Biochem, 1999).

System: COc1cc2c(c(OC)c1OC)-c1ccc(OC)c(=O)cc1[C@@H](NC(C)=O)CC2
Test: TP_TRANSPORTER: uptake in membranes from CEM/VLB100 cells
Type: functional, cell membranes, Membrane

ATP-dependent translocase ABCB1 (Homo sapiens)
Km: 1.33 µM
